Test results as given in PMC6859074.

Columns and labels:
[1] = biological target: 14 subunit-CCAN complex (constitutive centromere associated network), S. cerevisiae (S. cerevisiae) (UniProt P35201); assay: AUC
[2] = biological target: S. cerevisiae Cenp-A nucleosome wrapped with the 147 bp Widom 601 sequence (S. cerevisiae) (UniProt P36012); assay: AUC
[3] = biological target: 14 subunit-CCAN complex (constitutive centromere associated network), S. cerevisiae (S. cerevisiae) (UniProt P35201); assay: SEC-MALS
[4] = biological target: S. cerevisiae Cenp-A nucleosome wrapped with the 147 bp Widom 601 sequence (S. cerevisiae) (UniProt P36012); assay: SEC-MALS + AUC
[5] = biological target: 14 subunit-CCAN complex (constitutive centromere associated network), S. cerevisiae (S. cerevisiae) (UniProt P35201); assay: cryo-EM structure

stoichiometry N [1]: 2
stoichiometry N (CCAN per Cenp-A^Nuc) [2]: 1
stoichiometry N [3]: 2
stoichiometry N (CCAN per Cenp-A^Nuc) [4]: 2
stoichiometry N [5]: 2
Substance: 14 subunit-CCAN complex (constitutive centromere associated network), S. cerevisiae (from UniProt P35201;Q12262;Q12748;P47167;P43618;Q2V2P8;P38265;P38907;Q06675;Q02732;P53298;P38313;Q12493;Q06162)
